According to US10577406B2, “FKBP-L polypeptides and uses in angiogenesis-mediated disorders” (ALMAC DISCOVERY LIMITED, priority 2006, dated 2020):

B1: full length recombinant FKBP-L: recombinant full length his-tagged FKBP-L protein (SEQ ID NO: 1) expressed in BL21 (DE3) (protein, listed as Homo sapiens)
chain: MRGSHHHHHHGMASMTGGQQMGRDLYDDDDKDRWGSMETPPVNTIGEKDTSQPQQEWEKNLRENLDSVIQIRQQPRDPPTETLELEVSPDPASQILEHTQGAEKLVAELEGDSHKSHGSTSQMPEALQASDLWYCPDGSFVKKIVIRGHGLDKPKLGSCCRVLALGFPFGSGPPEGWTELTMGVGPWREETWGELIEKCLESMCQGEEAELQLPGHTGPPVGLTLASFTQGRDSWELETSEKEALAREERARGTELFRAGNPEGAARCYGRALRLLLTLPPPGPPERTVLHANLAACQLLLGQPQLAAQSCDRVLEREPGHLKALYRRGVAQAALGNLEKATADLKKVLAIDPKNRAAQEELGKVVIQGKNQDAGLAQGLRKMFG
modifications: His tag

What was measured:
[1] = tested on: HMEC-1; test: in vitro migration assay (wound closure / wound scrape), recombinant protein or peptides added to medium; format: cell-based, Human
Description: The in vitro migration assay used in these studies is a modified version of the method described by Ashton et al (1999). HMEC-1 were plated into individual chambers on a glass slide and grown to 90% confluence overnight. The medium was removed and the monolayer wounded. The monolayer was re-supplemented with fresh medium and the required volume of recombinant full length his-tagged FKBP-L protein (SEQ ID NO: 1) was added to give the required final concentration.
The monolayers were incubated for 7 hours after exposure to recombinant FKBP-L protein and then fixed in 4% PBS buffered paraformaldehyde. The extent of “wound” closure was blindly assessed microscopically by an independent investigator and quantified using a calibrated eyepiece graticule (1 mm/100 μm graduation) at 20× magnification (Olympus BX 50). The extent of closure in the FKBP-L treated slides was compared to time matched sham treated controls and the % inhibition of wound closure compared to time matched controls calculated.
The following studies were performed to determine the effect of a full length His-tagged recombinant FKBP-L protein on the wound closure assay measured as a function of time. Again, the in vitro migration assay used in these studies is a modified version of the method described by Ashton et al (1999). HMEC-1 were plated into individual chambers on a glass slide and grown to 90% confluence overnight. The medium was removed and the monolayer wounded. The monolayer was re-supplemented with fresh medium and the required volume of full length his-tagged recombinant FKBP-L (i.e., SEQ ID NO: 1) added to give the required final concentration 750 ngml^−1.
Slides were removed at fixed time points until complete closure of the wound, then fixed in 4% PBS buffered paraformaldehyde. The extent of “wound” closure was blindly assessed microscopically by an independent investigator and quantified using a calibrated eyepiece graticule (1 mm/100 μm graduation) at 20× magnification (Olympus BX 50). The extent of closure in the FKBP-L treated slides was compared to time matched sham treated controls and the % inhibition of wound closure compared to time matched controls calculated.
The in vitro migration assay used in these studies is a modified version of the method described by Ashton et al. (1999) see supra. HMEC-1 were plated into individual chambers on a glass slide and grown to 90% confluence overnight. The medium was removed and the monolayer wounded. The monolayer was re-supplemented with fresh medium and the required volume of the following peptides was added to achieve a dose range from 10^−14-10^−6 M.
The monolayers were incubated for 7 h and then fixed in 4% PBS buffered paraformaldehyde. The extent of “wound” closure was blindly assessed microscopically by an independent investigator and quantified using a calibrated eyepiece graticule (1 mm/100 μm graduation) at 20× magnification (Olympus BX 50). The extent of closure in the FKBP-L treated slides was compared to time matched sham treated controls and the % inhibition of wound closure compared to time matched controls calculated.
The in vitro migration assay used in these studies is a modified version of the method described by Ashton et al. (1999) see supra. HMEC-1 were plated into individual chambers on a glass slide and grown to 90% confluence overnight. The medium was removed and the monolayers wounded. The monolayer was re-supplemented with fresh medium and the required volume of each peptide (i.e., peptides 1-17, SEQ ID NOS: 12-28; Table 4 below) was added to give the required final concentration (10^−14-10^−6 M).
The monolayers were incubated for 24 h and then fixed in 4% PBS buffered paraformaldehyde. The extent of “wound” closure was blindly assessed microscopically by an independent investigator and quantified using a calibrated eyepiece graticule (1 mm/100 μm graduation) at 20× magnification (Olympus BX 50). […]

[2] = tested on: MDA231 (breast tumor cell line; CD44 +ve); test: tumor cell migration, wound closure assay, MDA231; format: cell-based
Description: In these experiments, the effect of recombinant FKBP-L on tumor cell migration was assessed. The in vitro migration assay used in these studies is a modified version of the method described by Ashton et al (1999) see supra. PC3, MDA231, and HT29 tumor cells were plated into individual chambers on a glass slide and grown to 90% confluence overnight. The medium was removed and the monolayers wounded. The monolayer was re-supplemented with fresh medium and the required volume of His-tagged recombinant FKBP-L protein (SEQ ID NO: 1) was added to give the final concentrations shown. The monolayers were incubated for 24 hours and then fixed in 4% PBS buffered paraformaldehyde.
The extent of “wound” closure was blindly assessed microscopically by an independent investigator and quantified using a calibrated eyepiece graticule (1 mm/100 μm graduation) at 20× magnification (Olympus BX 50). The extent of closure in the FKBP-L treated slides was compared to time matched sham-treated controls and the percent inhibition of wound closure compared to time matched controls calculated. […]
The extent of “wound” closure was blindly assessed microscopically by an independent investigator and quantified using a calibrated eyepiece graticule (1 mm/100 μm graduation) at 20× magnification (Olympus BX 50). […]

Molecule	potency compared with the full length recombinant protein on a mole/mole basis ([1]; wound scrape, 7 h)	effect on tumor cell migration ([2]; MDA-231, 10^−14-10^−7 M, 24 h)	delay of 50% wound closure versus control ([1]; 750 ngml^−1) [h]	time until 50% wound closure ([1]; 750 ngml^−1, single administration, control 7 hours) [h]	inhibition of HMEC-1 migration into the denuded area of the monolayer compared to time matched controls ([1]; 750 ngml^−1, 7 hours) [%]	time until which the wound remained open (total wound closure) ([1]; 750 ngml^−1, control 16 hours) [h]	optimum concentration for inhibition of migration ([1]; 7 hours) [ngml^−1]	dose effective to prevent cell migration ([1]; FIG. 4 dose response)	effect on tumor cell migration ([2]; MDA231, 24 hours)
H-QIRQQPRDPPTETLELEVSPDPAS-OH [FKBP-L 24mer]	increased potency	can inhibit							
B1			9	16	60	34	750	10^−6 M	inhibits tumor cell migration in a dose-dependent manner
